In PMC5376975, “Structural studies of RFCC tf18 reveal a novel chromatin recruitment role for Dcc1”:

T1: Dcc1 C-terminus WT (Saccharomyces cerevisiae, UniProt P25559 90-380)
T1 sequence: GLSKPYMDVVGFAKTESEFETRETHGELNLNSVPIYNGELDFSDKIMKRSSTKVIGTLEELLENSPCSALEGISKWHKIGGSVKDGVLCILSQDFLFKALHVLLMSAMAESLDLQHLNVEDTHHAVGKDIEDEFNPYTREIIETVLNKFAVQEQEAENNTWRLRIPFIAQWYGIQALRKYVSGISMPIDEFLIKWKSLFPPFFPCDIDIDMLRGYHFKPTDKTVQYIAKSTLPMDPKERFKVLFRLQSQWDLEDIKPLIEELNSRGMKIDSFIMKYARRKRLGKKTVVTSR


Target: T1, Dcc1 C-terminus WT
Assay: EMSA; 1 uM DNA; EMSA, 6% native gel in 0.5x TBE, 4 C, DNA 1 uM unless stated; binding buffer, salt and pH not stated (protein storage 10 mM Tris pH 7.5, 150 mM NaCl, 0.5 mM TCEP for the complex)
Details: protein: recombinant, tags: expressed by the complex protocol

| Binder | binding result (label: 5' 6-FAM) | binding result (label: 5' 6-FAM on sense strand) |
| --- | --- | --- |
| TTTTTTTTTTTTTTTTTTTTTTTTT (ssDNA) [25-mer oligo d(T)] | binds |  |
| 22-mer dsDNA (dsDNA) DNA 1: TCTCCACAGGAAACGGAGGGGT DNA 2: ACCCCTCCGTTTCCTGTGGAGA |  | binds |
